This is an account of results in patent publication US20230331827A1, “POTASSIUM CHANNEL INHIBITORS” (priority 2017, published 2023).

The test system of assay [1] is trypsin. The experiment in a line: Phage TRF binding assay on immobilised biotinylated trypsin (monoclonal phage ELISA). The settings on record: for % reduction in binding signal: GlyAla mutant (Pro3, Arg4 of EETI-II substituted) versus the clone, monoclonal phage; for Tryspin binding signal (FU): monoclonal phage supernatant, biotinylated trypsin on neutravidin plates. The essentials: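 Monoclonal phage from single clones tested for binding to biotinylated trypsin immobilised on neutravidin-coated plates. Bound phage detected with mouse anti-M13 antibody then europium-conjugated anti-mouse antibody, read by time-resolved fluorescence. Clones with >3x signal over background scored positive.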

Assay [2] concerns trypsin. The experiment in a line: KnotBody Fab TRF binding assay on biotinylated trypsin. The settings on record: for TRF signal for 0.6 ug/mL Fab: Fab 0.6 ug/mL; for TRF signal for 2.4 ug/mL Fab: Fab 2.4 ug/mL; for TRF signal for 10 ug/mL Fab: Fab 10 ug/mL. As for the experimental part: In order to confirm the trypsin binding ability of KnotBodies in Fab format, purified proteins were tested for binding to trypsin using a TRF binding assay. In this assay binding of KnotBody Fabs ([…]) to biotinylated trypsin (immobilised on streptavidin coated Maxisorp™ plates) was detected using a mouse anti-CH1 antibody followed by a europium conjugated anti-mouse antibody (Table 4). 7 KnotBodies (KB_A04, KB_A01, KB_A05, KB_A07, KB_A08, KB_A10, KB_A12) were chosen for crystallisation. DNA prepared for these clones were transfected into 500 ml HEK-293F cells as described before. Expressed proteins were purified using CaptureSelect IgG-CH1 affinity matrix. Purified proteins were initially subjected to crystallisation trials using commercially available crystallisation screens (Supplier). Well-defined crystals were readily obtained for KB_A12 and KB_A05. Crystallisation conditions for these two clones were further optimised and the following condition was used to generate diffraction quality crystals: 0.1 M MES pH=6.5, 25 %w/v PEG MME 2000 and 0.1 M Tris.Cl, 50% PEG MME, 10 mM NiCl2. Complete diffraction data was collected on these crystals at 100 K under liquid nitrogen stream. Collected data was processed using PROTEUM2 software (Bruker). The crystal structure of the knottin-fused Fab antibodies was resolved using molecular replacement technique^109 using Phenix software v 1.8.1-1168^110. Resulting structure was further refined using Phenix.Refine^111. The templates for molecular replacement were downloaded from PDB website (www.rcsb.org/pdb, PDB codes: 3G04 for light chain and 3QOS for heavy chain). KnotBody KB_A12 and KB_A05 sequences are given below. An additional AlaSer sequence is introduced at the N terminus of the light chain from the Nhe1 site used in cloning.
In order to compare the performance of the KnotBodies with short and long linkers, purified Fabs were tested for binding to trypsin by ELISA. In this assay binding of KnotBody Fabs (at 0.5 µg/ml) to biotinylated trypsin (5 µg/ml immobilised on streptavidin coated Maxisorp™ plates) was detected using a mouse anti-CH1 antibody (Hybridoma Reagent Laboratories) followed by a europium conjugated anti-mouse antibody (Perkin Elmer, Cat. No. AD0124). The trypsin binding capability of KB_A07 and KB_A12 KnotBodies were greatly diminished when the short selected linkers were replaced with long and flexible linkers (FIG. 22).

B1: KB_A07: EETI-II knottin fused into VL CDR2, D1A12 VH; parental KnotBody, isotype control (antibody, V domains shown)
VH: EVQLVESGGGLVRPGGSLRLSCAASGFTFSSYAMSWVRQAPGKGLEWVSAISGSGGSTYYADSVKGRFTISRDNTKNSLYLQMTSLRADDTAFYYCVKDFGPGYGTGWFDYWGPGTLVTVSS
VL: DIQMTQSPSSLSASVGDRVTITCRASQSISSYLNWYQQKPGKAPKLLIYAAGVCPRILMRCKQDSDCLAGCVCGPNGFCGSRSGVPSRFSGSGSGTDFTLTISSLQPEDFATYYCQQGASPPYTFGQGTKVEIKRT
Turning to B1, in the assay with trypsin [1], the “% reduction in binding signal” value came out at 98% and the “Tryspin binding signal (FU)” value worked out at 21448 FU. Moreover, in the assay with trypsin [2], the “TRF signal for 0.6 ug/mL Fab” value turned out to be 107814, the “TRF signal for 2.4 ug/mL Fab” value turned out to be 201003 and the “TRF signal for 10 ug/mL Fab” value is 226082.

B2: KB_A12: EETI-II knottin fused into VL CDR2, D1A12 VH; parental KnotBody, isotype control (antibody, V domains shown)
VH: B1 VH
VL: QSVLTQPPSVSEAPRQRVTITCSGSSSNIGNNAVNWYQQLPGKAPKLLIYAAGRCPRILMRCKQDSDCLAGCVCGPNGFCGANSGVSDRFSAAKSGTSASLAINGLRSEDEADYYCAAWDDSLNGYVFGTGTKLTVLGQP
B2: in the assay on trypsin [1], the “% reduction in binding signal” value was 99% and the “Tryspin binding signal (FU)” value stood at 69349 FU. Besides, the “phage binding to trypsin” value in the assay with trypsin [1] (PEG precipitated phage, compared to EETI-II cow ULVC-Ab, FIG. 25) was “superior binding to trypsin”. In addition, in the assay on trypsin [2], the “TRF signal for 0.6 ug/mL Fab” value is recorded as 102132, the “TRF signal for 2.4 ug/mL Fab” value was found to be 221989 and the “TRF signal for 10 ug/mL Fab” value is listed as 252832.
